Patent US20080014204A1

Target: spike protein of wild-type SARS-CoV strain HKU 39849 (SARS-CoV strain HKU 39849)
Test: cell-based or functional assay

CR03-022 (antibody) showed a Log (TCID50/ml) with mAb (60 µg/ml CR03-022, FRhK-4 cells) (log TCID50/ml) of 4 and an NI (neutralization index) of 3.3 logs.
